Target: hEAAT3-X (Hg2+-crosslinked Cys-mini K269C/W441C hEAAT3g, human excitatory amino acid transporter 3) (human) (UniProt P43005)
Test: cryo-EM structure; hEAAT3-X at ~5 mg/mL in 20 mM HEPES-Tris pH 7.4, 200 mM NaCl, 0.01% GDN with 10 mM L-Asp, D-Asp, R-2HG or L-Cys; maps refined with C3 symmetry

stoichiometry N: 3
Substance: hEAAT3-X (Hg2+-crosslinked Cys-mini K269C/W441C hEAAT3g, human excitatory amino acid transporter 3) (from UniProt P43005 1-524)
